From a protein production outcome set (Wang et al. 2014) come the findings set out here.

A short description of the data set: label from the status in PepcDB records.
Regarding “MAAVILESIFLKRSQQKKKTSPLNFKKRLFLLTVHKLSYYEYDFERGRRGSKKGSIDVEKITCVETVVPEKNPPPERQIPRRGEESSEMEQISIIERFPYPFQVVYDEGPLYVFSPTEELRKRWIHQLKNVIRYNSDLVQKYHPCFWIDGQYLCCSQTAKNAMGCQILENRNGSLKPGSSHRKTKKPLPPTPEEDQILKKPLPPEPAAAPVSTSELKKVVALYDYMPMNANDLQLRKGDEYFILEESNLPWWRARDKNGQEGYIPSNYVTEAEDSIEMYEWYSKHMTRSQAEQLLKQEGKEGGFIVRDSSKAGKYTVSVFAKSTGDPQGVIRHYVVCSTPQSQYYLAEKHLFSTIPELINYHQHNSAGLISRLKYPVSQQNKNAPSTAGLGYGSWEIDPKDLTFLKELGTGQFGVVKYGKWRGQYDVAIKMIKEGSMSEDEFIEEAKVMMNLSHEKLVQLYGVCTKQRPIFIITEYMANGCLLNYLREMRHRFQTQQLLEMCKDVCEAMEYLESKQFLHRDLAARNCLVNDQGVVKVSDFGLSRYVLDDEYTSSVGSKFPVRWSPPEVLMYSKFSSKSDIWAFGVLMWEIYSLGKMPYERFTNSETAEHIAQGLRLYRPHLASEKVYTIMYSCWHEKADERPTFKILLSNILDVMDEES”, the protein production entry was “not failed”.
The value for “MSLEEELRRETLKWLERIEERVKEIEGDEGFMRNIEAYISDSRYFLEKGDLVRAFECVVWAWAWLEIGLEVGKLHETAEGHHHHHH” was “not failed”; that for “MTQTTPQPDPSRLRDELVRLHGKASPEWDSLVRLDPRFVDAYLKFAGVPQRRNHLDDKTRAFIALAADACATQLYAPGVARHIERALSFGATREELIEVLELVSTIGIHTSNVGVPVLLEVLEEEGLRKGAPPLDERRQKLKAEFETNRGYWHPTWEGLLELDPDLFEAYVEFSSVPWRTGVLSPKIKEFMYCAFDASATHLYVPGLKLHIRNALRYGATAEELMELLEIVSVTGIHGAELGAPLLEAALKRSGAAAGEPHA” was “not failed”.
Take “MAAMPKPAAFWNDRFANEEYVYGEAPNRFVASAARTWLPEAGEVLLLGAGEGRNAVHLAREGHTVTAVDYAVEGLRKTERLATEAGVEVEAIQADVREWKPARAWDAVVVTFLHLPADERPGLYRLVQRCLRPGGRLVAEWFRPLEHHHHHH”: the protein production result was “failed”.
The value for “MNNTKTYSKTSIALHWIVGLAFIGVFIIGAYLSDLPRGPEKMELVALHKSFGVLILLIALARVFWRIKEGAIPPASVMPAWQEKVAKAVHGLLLLATLAMPLSGIAMNIGGGRALEVFGYTLVAAGEKVVWLQELGAAVHKTAPPIIIAIVLLHIAAVLKHHLIDKDATMARMLGRG” was “failed”; that for “MMVISEKVRKALNDQLNREIYSSYLYLSMATYFDAEGFKGFAHWMKKQAQEELTHAMKFYEYIYERGGRVELEAIEKPPSNWNGIKDAFEAALKHEEFVTQSIYNILELASEEKDHATVSFLKWFVDEQVEEEDQVREILDLLEKANGQMSVIFQLDRYLGQRE” was “not failed”.
The value for “MSKNIGLNAIEMSYLRQSLSLSAAQVGQLTNHSEAEVLAWENAETQAPELAQKKLLDIDDIIEMQVLNTTDGIEALFKKEPKRHLAFVVYPTQAIYTQYNPEFLSSLPLTELYNTAAWRIKKECKLVLEVDVSLINLNVEAYKAYREQNGLSESRESRAKWAATQL” was “not failed”; that for “MVKATKAEKKIAYDTKLCQLIDEYTQILVVAADNVGSTQLQNIRKGLRGDSVVLMGKNTMMKRSVRIHSENTGNTAILNLLPLLQGNVGLIFTKGDLKEVSEEVAKYKVGAPARVGLVAPIDVVVQPGNTGLDPSQTSFFQVLNIPTKINKGTVEIITPVELIKQGDKVGSSEAALLAKLGIRPFSYGLVVQSVYDNGSVFSPEVLDLTEDQLVEKFASGISMVTSLALAVSYPTLAAAPHMFINAYKNALAIAVATEYTFPQAEKVKEYLKDPSKFAVASVAAVSADAGGGAPAAAKVEEKEESDEEDYGGDFGLFDEE” was “failed”.
For the sequence “MYALVDAVSFYASAEKVFDPSIRNKPVVVLTNNDGCICAVCPIARRLGIPKFIPYFQVKSLLEKHGVVVRSSNYELYADLSERMMNVIGRFCDNQYIYSIDESFLYFDHYESCINDWHEYGHKIRKAIWKETRLPVGVGFGETATLSKAANHAAKKLSGFNGVAVINSAVSRDKILKRMAVDEVWGIGRKISKRLGLEGINNAAQLAEQDPKHIRKQFSVVTERTVNELNGISCLSWDEVKSPKKEIFSTRSFGQRITTKNELRSALVTHAAIVGRKVRRQNSLIKKLMIFASNSPHDDLYYKQSMVFPFIIATENTCEMARAVNQVIDSIYKAGIKFYRCGVGAIELNSKTFIQPDLFMPDHTNSNVMKCLDNVNHRYGDSTLKLAAEGHHEKWQMRRAFLSPQYTSQWRDIPKIQC”, the protein production result is “failed”.
The value for “MLTNIERAKLQLIDETNDMVIITKAEPLDAPNGPEVVWVNKAFENISKYKANEIIGQTPRILQGKETNQNTLKMIKEALKAQTNINVDLLNYTKDGTPYWISFSIVYLRDGQGNLCYLGAIEKDITALKNLNFKLSEKAKTDPLTNVYNQENFFIAGNEAIKNFHQNQEAVGLLFFDVDDFKGINDTQGHIYGDMILKKVAQESLKLVRKTDNVFRYGGDEFAIIFSGIDVKILERKAQQLQKKLAKSHISVSIGGTISIQSDKSINTLLARADEALYYVKANKKGLFFIAE” was “failed”; that for “MLYLFPLLAVVIWAGNAIVNKLSFGIIAPEAIAFYRWFFAMLILTPFMLKSVWKNRRRIIPLLPKLATLASLGMVLNQSLAYFAAATTTATNMALINSLVPMISLFLAVPLLKQRLSPLVLGGSVISLLGLVFMLSHGDIANLAIGVTEGDLLLLISAFVYALYGVLLKRWQLPISTWESVYIQGIIAVLMLTPLLFSAPSIAISSQATPLIVYAAFGASLIAPWAWINGINKLGAERTSIFFNLMPILAAIFAAIILNETLAIYHYLGGTMVILGVMLVQIKPKPKTTTIITCAE” was “failed”.
On to “MAANVSGAKSCPANFLAAADDKLSGFQGDFLWPILVVEFLVAVASNGLALYRFSIRKQRPWHPAVVFSVQLAVSDLLCALTLPPLAAYLYPPKHWRYGEAACRLERFLFTCNLLGSVIFITCISLNRYLGIVHPFFARSHLRPKHAWAVSAAGWVLAALLAMPTLSFSHLKRPQQGAGNCSVARPEACIKCLGTADHGLAAYRAYSLVLAGLGCGLPLLLTLAAYGALGRAVLRSPGMTVAEKLRVAALVASGVALYASSYVPYHIMRVLNVDARRRWSTRCPSFADIAQATAALELGPYVGYQVMRGLMPLAFCVHPLLYMAAVPSLGCCCRHCPGYRDSWNPEDAKSTGQALPLNATAAPKPSEPQSRELSQ”, for which the protein production result was “failed”.
The value for “MTLVDDRLLESKMTKVEQARAWSPRVISKFETLIKSADDHSLYRVNPLAFARDRAIAEAEAIDLFLHAARCGLFDMSWDVLCPQSGMVLDSFGALRTLKTHYVCGLCDVSGDTDLDDFIEVTFSVSPKLRRLPYHDPETLPVEDFHWKLHFGHDGRLPGQDVRFLDVLRGFVRGMTFLPPGTTTVLRADLGPGALSGVNVQTQAAFAVPISGDRGLAPTLLKIDYDGKRFLPAMPAVPPGPIVIEVANRGPVRGSLLVINWPPELVALTTKPTLDFDPYVSGGALLARQTFRQLFRSERVDEKEGLGIRQITFLFTDLKGSTAMYERLGDLNAYALVREHFALVNAAVQQHSGAVVKTIGDAVMAVFSQPSDAISAALHVFEEIDRFNGDHDGPGIILKIGAHCGPSIAVTLNDNLDYFGQTVNVAARVQSLAEAGQICISEALYSAPGVREMLAGHRVVAFDAPLRGVQGDATVYRIMRE” was “failed”.
The same measure for “MPSLFSLYRKIFFGRKPGWDQQPLPYIKVTAPNVRVSEAKISQYAQVCGFDFDGKLLPPTYLYVMAFRLHAVIFTHDGITFPLLGMIHLKNRIQVYRPAAVDEVFALECALTTSRETDSGLEFEFVSKAFVGEELVWESLSTYLYRIETAGRRVRPPKALDMAWDSPQSWELGEDLGRRYAKASGDYNLIHLHPMLSKRFGFDRVLAHGMWSKARCLAELMPEIGERPFVVDVAFKLPLLMPAEVGFGYEKTEDKWVFELRDSKGRRPHLSGEVQL”: “failed”; for “MEKFKYSLLVLFGACSYGILSTIFKLGFINGFSAHQLLGGQYVFGWIGLFLLVLFFSRHKVTKKQFFSLLTVGTTMSMTGIFYAISVEELPASIAVVLLFQFTWIGVIIEAIANRTFPSRDKIISILILFAGTLFAGGVFEGLGQSFSTKGIIFGLLAAVSFSFYVFASGRVATDVPPYTKSFLMTTSATLIVCLFFPPTFLTDGALQAGLWKYAFFLGLFGVVVPVICFSIGVPKVGTGLGTILGAAELPTAIIASITLVHEVVTFMQWIGIIFILVGIFIPQLLTARKERKQNRVHSA”: “failed”; for “MVKVAHVQLSSCCGCLVSLADTYEKLLDVLGAIDLVYSQTLADVREVPDDVDIILLEGSVCLSDHHAMEVALDSRKKAKILVALGACAATGNVTRFSKGNQPSKPVHDAFAPLTEVVKCDLAIPGCPPSPESIVAVVLAALNGDMEYLEPYAELAKYGSEACGCDLITKVINKSLCMGCGSCAAACPTRAVSMDAGRPLVDKEICIKCGSCSVQCPRIRFPDLIEKIE”: “failed”.
The same measure for “MSEAIVTIVVVPRERFSCTQASLESIYEHTKIPFKLIYVDGNSPTKVRKYLQKQAQEKNFQLIRTDYYLSPNHARNIGLSHVDTKYLVFLDNDVIVSPGWLQALVNCAETTGATVVGPLMCEKEPIHERIHFAGGESHIVIDVKGRRHLREKMYKQGHQVSELRSQLQQTETELAEFHCTLIRREIFEQIGYLDEEMLNTKEHLDFCMNVIQAGGKVYFEPDSLVTYVPGPPLEWSDLHFYMLRWSDAWTLASLQRIRAKWNLSEDGYFQTKYKKLGVRRVATIIKPFVRQVSFGNENKPLKRFLKNLDRKLNRFLTDRYTEMLPQRKLELPIIKKEISSVKEFTQV”: “failed”; for “MPYLLLTLAALFWGGNYVVGHVLVQGVDPILMTEARWALTALLLGLLYRRQIAGSRRLLRANAPAVVVLTLCGQVSFPLTLYIGLQTTSALNAAIYMSATPSMVLLINRLFFRDPVSGRNWLGVAFSTLGVMILLFQGNPLHAASLHTFAIGDLWAMGSALSWALYCSLLRLKDRRIPANGFVAVSSLLGALILVPIVIFWLMRHPAQDWAAWREPFFLSGLAYLVIFPSWLAYLFWNKGIATIGATRGEIYTHIIPLSGGVLSILFLHTQPHAWHLFSALFIMVGIGICSLEKRQAASIRLRD”: “failed”.
With “MGRLSGKTILVTGAASGIGRAALDLFAREGASLVAVDREERLLAEAVAALEAEAIAVVADVSDPKAVEAVFAEALEEFGRLHGVAHFAGVAHSALSWNLPLEAWEKVLRVNLTGSFLVARKAGEVLEEGGSLVLTGSVAGLGAFGLAHYAAGKLGVVGLARTLALELARKGVRVNVLLPGLIQTPMTAGLPPWAWEQEVGASPLGRAGRPEEVAQAALFLLSEESAYITGQALYVDGGRSIVGPPGLPPGFGPKGGERHAHVL”, the protein production entry is given as “not failed”.
Regarding “MSRKRTENGSESGPATSHVPVDRFGFLKQEHANSPERFSKSKTTSSTDHDREERKVRKWRKMIGVGGSDWKHYVRRKPNVVRRRIRKGIPDCLRGLVWQLISGSRDLLLMNPGVYEQLVIYETSASELDIIRDISRTFPSHVFFQKRHGPGQRSLYNVLKAYSVYDRDVGYVQGMGFIAGLLLLYMSEEDAFWLLVALLKGAVHAPMEGLYHAGLPLVQQYLFQLESLVKELIPKLGEHFTQEMINPSMYASQWFITVFSYSFPFPLALRIWDVFLSEGVKIVFKVGLALLKYCQDELVSKVTV”, the protein production entry is “failed”.
Turning to “MSLTQAQGAQQYVNINPPMPSDTPGKIEVLEFFAYTCPHCAAIEPMVEDWAKTAPQDVVLKQVPIAFNAGMKPLQQLYYTLQALERPDLHPKVFTAIHTERKRLFDKKAMGEWAASQGVDRAKFDSVFDSFSVQTQVQRASQLAEAAHIDGTPAFAVGGRYMTSPVLAGNDYAGALKVVDQLIVQSREGHHHHHH”, the protein production result is “not failed”.
